Measured values taken from publication PMC5356532.

What was measured:
[1] = target: Pyruvate kinase M2 (PKM2), endogenous in U251-iUS28 cells (human (endogenous in U251)) (UniProt P14618); assay: cross-linking
[2] = target: Pyruvate kinase M2 (PKM2), endogenous in NIH-3T3 cells (mouse (endogenous in NIH-3T3)) (UniProt P52480); assay: cross-linking

Chain of Pyruvate kinase M2 (PKM2), endogenous in NIH-3T3 cells, P52480 1-531 (enzyme; other documents disagree on this pair) (P52480 whole entry): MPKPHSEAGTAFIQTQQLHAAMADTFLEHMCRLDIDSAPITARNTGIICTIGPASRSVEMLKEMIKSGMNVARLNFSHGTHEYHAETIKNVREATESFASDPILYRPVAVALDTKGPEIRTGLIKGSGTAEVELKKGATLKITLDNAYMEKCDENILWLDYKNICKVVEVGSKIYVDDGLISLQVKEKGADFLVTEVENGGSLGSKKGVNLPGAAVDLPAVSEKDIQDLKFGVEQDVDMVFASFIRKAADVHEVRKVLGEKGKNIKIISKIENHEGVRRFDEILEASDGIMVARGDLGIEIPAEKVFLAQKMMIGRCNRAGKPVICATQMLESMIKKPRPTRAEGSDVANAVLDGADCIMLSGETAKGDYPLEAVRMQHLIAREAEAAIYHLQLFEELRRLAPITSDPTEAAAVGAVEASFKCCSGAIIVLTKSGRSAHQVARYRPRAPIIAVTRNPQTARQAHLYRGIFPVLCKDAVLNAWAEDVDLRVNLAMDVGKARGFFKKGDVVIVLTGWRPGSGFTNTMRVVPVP
Chain of Pyruvate kinase M2 (PKM2), endogenous in U251-iUS28 cells, P14618 1-531 (enzyme; other documents disagree on this pair) (P14618 whole entry): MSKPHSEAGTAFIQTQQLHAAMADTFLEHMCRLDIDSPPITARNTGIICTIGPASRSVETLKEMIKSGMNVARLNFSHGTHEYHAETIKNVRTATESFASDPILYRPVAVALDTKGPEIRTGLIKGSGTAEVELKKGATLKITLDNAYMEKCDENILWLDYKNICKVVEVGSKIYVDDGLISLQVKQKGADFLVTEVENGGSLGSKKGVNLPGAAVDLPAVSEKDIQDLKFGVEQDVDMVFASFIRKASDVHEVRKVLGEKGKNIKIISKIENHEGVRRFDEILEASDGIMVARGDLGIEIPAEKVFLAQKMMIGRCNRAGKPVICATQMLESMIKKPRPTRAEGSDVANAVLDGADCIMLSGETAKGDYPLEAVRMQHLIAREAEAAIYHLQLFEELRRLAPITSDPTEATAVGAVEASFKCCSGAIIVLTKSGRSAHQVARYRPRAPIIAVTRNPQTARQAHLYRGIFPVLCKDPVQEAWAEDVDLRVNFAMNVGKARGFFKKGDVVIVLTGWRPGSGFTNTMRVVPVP

Row | stoichiometry N [1] | stoichiometry N [2] | Substance
1 | 2 |  | Pyruvate kinase M2 (PKM2), endogenous in U251-iUS28 cells, P14618 1-531 (enzyme; other documents disagree on this pair)
2 |  | 2 | Pyruvate kinase M2 (PKM2), endogenous in NIH-3T3 cells, P52480 1-531 (enzyme; other documents disagree on this pair)
